{"source": "patent US12419937B2", "about": "“High concentration alpha-glucosidase compositions for the treatment of Pompe disease” (Amicus Therapeutics, Inc., priority 2012, dated 2025)", "key": {"rhGAA (e.g., Myozyme®)": {"target": "T1, rhGAA (e.g., Myozyme®) (Homo sapiens, UniProt P10253)", "T1 construct": "purchased Genzyme Corp; host or cells: Chinese hamster ovary cell line", "test": "rhGAA enzyme inactivation in citrate anti-coagulated whole blood at 37° C. (Examples 7, 8)", "format": "in vitro ADME", "settings": "for enzyme inactivated in whole blood: no 1-DNJ-HCl", "protocol": "Aliquots were collected at 0, 2, 4, 8 and 24 hrs and centrifuged to obtain plasma. These plasma samples were then diluted in potassium acetate buffer (pH 4.0) and assayed for GAA activity using the 4-methylumbeliferyl-α-glucose (4-MUG) fluorogenic substrate. The measured GAA activity for individual samples at each time point was normalized to the 0 hr and expressed as % of initial activity. Data from 4 independent experiments were analyzed to obtain the mean (and standard deviation) and plotted versus time to assess the loss of enzyme activity over this time course.\nAliquots were collected at 0, 3 and 6 hrs and centrifuged to obtain plasma. These plasma samples were then diluted in potassium acetate buffer (pH 4.0) and assayed for GAA activity using the 4-methylumbeliferyl-α-glucose (4-MUG) fluorogenic substrate. The measured GAA activity for individual samples at each time point was normalized to the 0 hr and expressed as % of initial activity.\nMoreover, since Myozyme® has a long plasma half-life (reported to be more than 3 hrs), there is a high probability that an appreciable amount of the enzyme remains in the circulation many hours after the infusion that would also be prone to inactivation.\nBased on human plasma PK data, these concentrations are readily obtainable in the clinic."}, "GAA KO mice [1]": {"tested_on": "GAA KO mice", "test": "Repeat subcutaneous dosing of rhGAA or rhGAA + 1-DNJ co-formulation in GAA KO mice (Example 13)", "format": "in vivo, mouse", "settings": "4 hours after the final SQ dose", "protocol": "12-week old male GAA KO mice in groups of 7 were used in the present study. Each group of mice was administered one of the following treatments:\n(2) Lumizyme® alone (20 mg/kg) delivered subcutaneously (SQ); or\n(3) Co-formulated Lumizyme® (20 mg/kg) and 1-DNJ (30 mg/kg) SQ.\nEach of the treatments were administered to their respective treatment group for a period of 2 weeks. The treatments were administered on Monday and Thursday of each week. SQ injections were administered between the shoulder blades of each mouse receiving treatment. A total of 4 doses was administered to each study animal. Diphenhydramine was administered intraperitoneally (IP) before the 3rd and 4th doses.\nrhGAA and glycogen levels were determined according to the following sampling protocol. Blood was taken from each study animal after the 4th dose for plasma pharmacokinetic analysis. GAA activity, Western blots, and 1-DNJ levels were determined for plasma samples taken 2 and 4 hours after the last SQ dose.\nTissue samples were collected to determine rhGAA uptake 3 days following the last dose of the study (i.e., 3 days post dose 4). Tissue samples included heart, diaphragm, tongue, brain, spleen, liver, biceps, triceps, quadriceps, soleus, gastrocnemius, ventral skin and dorsal skin from the SQ injection site. Tissue samples were also collected to determine glycogen concentration 14 days following the last dose of the study (i.e., 14 days post dose 4)."}, "[2]": {"settings": "rat, iv"}, "[3]": {"target": "T2, recombinant human GAA (Myozyme®) (Homo sapiens, UniProt P10253)", "T2 construct": "purchased Genzyme Corp", "test": "SYPRO Orange thermal stability assay (heat-induced denaturation)", "format": "physicochemical", "settings": "pH 5.2 vs pH 7.4; no ASSC", "from_the_text": "The thermal stability assay utilizes heat to induce protein denaturation, which is monitored using a SYPRO Orange dye that fluoresces upon binding to hydrophobic amino acids (which are not exposed in a folded protein).\nFIG. 5 depicts the results of a thermal stability assay that utilizes heat to induce protein denaturation, which is monitored using a SYPRO Orange dye that fluoresces upon binding to hydrophobic amino acids (which are not exposed in a folded protein).\nDenaturation is monitored using a SYPRO Orange dye that fluoresces upon binding to hydrophobic amino acids (which are not exposed in a folded protein).\nThe thermal stability was performed at pH 7.4 for two formulations, which corresponds to the pH of the ER."}, "GAA KO mice [4]": {"tested_on": "GAA KO mice", "test": "Myozyme® tissue uptake in GAA KO mice with and without oral 1-DNJ-HCl (Example 3)", "format": "in vivo, mouse", "settings": "10 mg/kg IV weekly; 7 days post injection", "protocol": "Five groups of GAA KO mice were administered one of the following formulations: […]\n(2) 10 mg/kg of Myozyme® IV once per week, for up to three weeks\nTissue homogenates were generated for analysis. Enzymatic activity as determined using a 4-MUG fluorogenic substrate assay."}, "GAA KO mice [5]": {"tested_on": "GAA KO mice", "test": "Tissue glycogen reduction in GAA KO mice (Example 9)", "format": "in vivo, mouse", "settings": "Myozyme® 40 mg/kg IV every other week for 8 weeks ± 30 mg/kg oral 1-DNJ-HCl, relative to untreated mice", "protocol": "Glycogen reduction with Myozyme® alone was 93±1%, 41±4%, 69±3%, and 18±4%, in heart (A), diaphragm (B), soleus (C), and quadriceps (D), respectively, relative to untreated mice.\nTwelve-week old male GAA KO mice were administered a single dose of Myozyme® (40 mg/kg) via bolus tail vein injection every other week for 8 weeks. To prevent anaphylaxis, before the third and fourth Myozyme® injection, diphenhydramine (10 mg/kg intraperitoneally) was administered 10 min before Myozyme® injection. […] Mice were euthanized 14 days after the last Myozyme® administration.\nGlycogen levels in heart, diaphragm, soleus, and quadriceps were then measured. […] Briefly, homogenates were prepared by homogenizing ˜50 mg tissue for 3-5 seconds on ice with a microhomogenizer in […] deionized water. Supernatants were heat denatured (99° C. for 10 min) to remove endogenous amyloglucosidase activity. Denatured lysates (4 μL) were then analyzed in duplicate by addition of 36 μL water with and without 10 μL of 800 U/mL of amyloglucosidase (Sigma Aldrich, St. Louis, MO) and incubated for 1 hour at 50° C. The reaction was stopped by inactivation at 100° C. for 10 min. Finally, 200 μL of glucose reagent (Sigma) was added absorbance read at 340 nm on Spectramax. A standard curve ranging from 5 μg/mL to 400 μg/mL Type III rabbit liver glycogen (Sigma) was run each day for conversion of absorbance to absolute glycogen units. Simultaneously, the amount of protein was determined in tissue homogenates using the Micro BCA Protein Assay (Pierce, Rockford, IL) following the manufacturer's instructions. The glycogen content of each sample was normalized to protein, and data were finally expressed as micrograms of glycogen per milligram of protein (μg/mg protein)."}, "GAA KO mice [6]": {"tested_on": "GAA KO mice", "test": "rhGAA activity uptake after Myozyme® IV bolus in GAA KO mice (comparison study of Table 3)", "format": "in vivo, mouse", "settings": "4 doses 20 mg/kg IV bolus at 2 week intervals, 3 days after the last dose"}, "[7]": {"settings": "reported; cited from earlier work"}}}
{"substance": "rhGAA: recombinant human acid α-glucosidase; Myozyme® in Examples 7-8, Lumizyme® in Example 13, product not named in Examples 5-6", "values": [{"measurement": "enzyme inactivated in whole blood", "setting": "rhGAA (e.g., Myozyme®); by 4 hrs", "result": "approximately 40%"}, {"measurement": "enzyme inactivated in whole blood", "setting": "rhGAA (e.g., Myozyme®); by 8 hrs", "result": "~70", "unit": "%"}, {"measurement": "enzyme inactivated in whole blood", "setting": "rhGAA (e.g., Myozyme®); by 24 hrs", "result": "~100", "unit": "%"}, {"measurement": "enzyme activity in whole blood", "setting": "rhGAA (e.g., Myozyme®); incubated with 50 μM 1-DNJ-HCl, up to 24 hrs", "result": "remained completely active"}, {"measurement": "plasma rhGAA levels", "setting": "GAA KO mice [1]", "result": "increased compared to the levels in the 2 hour samples"}, {"measurement": "in vivo half life of rhGAA", "setting": "[2]", "result": "1.4 ± 0.2", "unit": "h"}]}
{"substance": "alglucosidase alfa [Myozyme®]", "values": [{"measurement": "stability of Myozyme® at lysosomal pH vs ER pH", "setting": "[3]", "result": "much more stable at lysosomal pH (5.2) than at ER pH (7.4)"}, {"measurement": "Myozyme® tissue uptake (as a measure of GAA activity) over time", "setting": "GAA KO mice [4]", "result": "declined at 7 days post injection"}, {"measurement": "glycogen reduction in diaphragm", "setting": "GAA KO mice [5]", "result": "41±4", "unit": "%"}, {"measurement": "glycogen reduction in heart", "setting": "GAA KO mice [5]", "result": "93±1", "unit": "%"}, {"measurement": "glycogen reduction in quadriceps", "setting": "GAA KO mice [5]", "result": "18±4", "unit": "%"}, {"measurement": "glycogen reduction in soleus", "setting": "GAA KO mice [5]", "result": "69±3", "unit": "%"}, {"measurement": "rhGAA activity uptake, Biceps", "setting": "GAA KO mice [6]", "result": 10.1, "unit": "nmol/mg/h"}, {"measurement": "rhGAA activity uptake, Diaphragm", "setting": "GAA KO mice [6]", "result": 7.1, "unit": "nmol/mg/h"}, {"measurement": "rhGAA activity uptake, Gastrocnemius", "setting": "GAA KO mice [6]", "result": 17.9, "unit": "nmol/mg/h"}, {"measurement": "rhGAA activity uptake, Heart", "setting": "GAA KO mice [6]", "result": 1.8, "unit": "nmol/mg/h"}, {"measurement": "rhGAA activity uptake, Quadriceps", "setting": "GAA KO mice [6]", "result": 6.9, "unit": "nmol/mg/h"}, {"measurement": "rhGAA activity uptake, Skin", "setting": "GAA KO mice [6]", "result": 27.1, "unit": "nmol/mg/h"}, {"measurement": "rhGAA activity uptake, Soleus", "setting": "GAA KO mice [6]", "result": 8.0, "unit": "nmol/mg/h"}, {"measurement": "rhGAA activity uptake, Tongue", "setting": "GAA KO mice [6]", "result": 12.4, "unit": "nmol/mg/h"}, {"measurement": "rhGAA activity uptake, Triceps", "setting": "GAA KO mice [6]", "result": 3.9, "unit": "nmol/mg/h"}, {"measurement": "plasma half-life", "setting": "[7]", "result": "more than 3 hrs"}]}
